Measurements from the RNAGym collection of RNA variant scans (doi:10.1093/molbev/msab373).

B1: Azoarcus group I ribozyme (parent)
chain: GUGCCUUGCGCCGGGAAACCACGCAAGGGAUGGUGUCAAAUUCGGCGAAACCUAAGCGCCCGCCCGGGCGUAUGGCAACGCCGAGCCAAGCUUCGGCGCCUGCGCCGAUGAAGGUGUAGAGACUAGACGGCACCCACCUAAGGCAAACGCUAUGGUGAAGGCAUAGUCCAGGGAGUGGCGAAAGUCACACAAACCGG

Variants of: B1
Assay: reverse-splicing fitness (ratio to wild type); higher = more active; in vitro selection; Mg2+ level not given
How it was run: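 An in vitro group I ribozyme library with randomized positions was T7-transcribed and gel-purified. In triplicate, 10 pmol RNA in EPPS pH 7.5 was reacted with 50 pmoles of a 30-nt RNA substrate for 1 h at 37 °C across several added MgCl2 levels (1–48 mM), then stopped with EDTA. Products were reverse transcribed from a substrate-complementary primer, PCR-amplified and sequenced (HiSeq 4000). Fitness is a variant's read proportion after selection over that before, normalised to wild type.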

In order of rising reverse-splicing fitness:
1. A120U A145G C169A U176G  0.00148
2. A120U A145U C150A C169A U176G  0.00156
3. A120U A145U C169A U176G  0.00158
4. A120U C169A U176G  0.00204
5. A120U C150A C169A U176G  0.00205
6. A120U A145C C150U C169G U176G  0.00233
7. A120U C150G C169G U176C  0.0024
8. A120U A145U C150G C169A U176G  0.00241
9. A120U C150G C169G U176G  0.00248
10. A120U C150A C169G U176G  0.00249
11. A120U A145U C150A C169A U176C  0.00256
12. A120U A145U C150A C169A U176A  0.0027
13. A120U C150U C169G U176G  0.00278
14. A120U A145G C150U C169G U176G  0.00281
15. A120U A145U C150A C169A  0.00309
16. A120U A145C C169G U176G  0.00318
17. A120U A145U C169G U176G  0.00322
18. A120U C150A C169A U176C  0.00333
19. A120U A145U C150G C169A U176C  0.00335
20. A120U A145U C169A U176A  0.00339
21. A120U A145U C150G C169A U176A  0.00344
22. A120U A145G C150G C169G U176G  0.00354
23. A120U C150A C169A U176A  0.00376
24. A120U C169A U176A  0.00399
25. A120U A145G C150A C169U U176G  0.00424
26. A120U A145U C150G C169A  0.00425
27. A120U C150A C169U U176G  0.00432
28. A120U A145G C169A U176A  0.00474
29. A120U C150A C169A  0.00484
30. A120U C150G C169G U176A  0.00487
31. A145C C150G C169A U176G  0.00491
32. A120U A145U C169A U176C  0.00507
33. A145C C150A C169G U176G  0.00531
34. A145C C150G C169G U176G  0.00537
35. A120U A145G C150G C169G U176C  0.00575
36. A145C C150A C169U U176G  0.00589
37. A120U C169A U176C  0.00594
38. A145C C150U C169A U176G  0.00607
39. A145G C150U C169A U176G  0.00628
40. A145C C150U C169G U176G  0.00658
41. A120U A145G C169A U176C  0.00664
42. A120U A145C C150U C169U U176G  0.00705
43. A145G C150A C169U U176G  0.00772
44. A145G C150G C169A U176G  0.00779
45. A145G C150G C169U U176G  0.00808
46. A145C C150U C169U U176G  0.00838
47. A120U C150U C169U U176G  0.00872
48. A120U A145G C150G C169G U176A  0.00914
49. A145C C150G C169G U176C  0.00959
50. A145C C150G C169A U176A  0.00984
51. A120U C150A C169G U176A  0.0106
52. A120U C150G U176G  0.0108
53. A120U C150U C169A  0.0111
54. A145C C169U U176G  0.0117
55. A145C C150G C169A U176C  0.0118
56. A145C C150A C169A  0.0125
57. A120U A145C C169U U176G  0.0133
58. A145G C150G C169A U176A  0.0133
59. A145C C150G C169G U176A  0.0135
60. A120U A145C C150U C169G U176C  0.0135
61. A120U C169U U176G  0.0138
62. A120U C150A C169G U176C  0.0141
63. A120U A145C C169A  0.0147
64. A120U A145G C169A  0.0154
65. A120U A145C C150U C169G U176A  0.0156
66. A145C C150U C169A U176A  0.0158
67. A120U C169A  0.0174
68. A120U C150A C169U U176A  0.0178
69. A145G C150G C169U U176A  0.0192
70. A145G C150G C169A U176C  0.0194
71. A120U C150A C169U U176C  0.0195
72. A145C C150U C169A U176C  0.0196
73. A145C C150A C169G U176C  0.0203
74. A145C C150A C169G  0.0208
75. A145C C150A C169U U176C  0.0218
76. A145C C150A C169U U176A  0.023
77. A120U A145G C150A C169U U176A  0.0235
78. A120U C150U C169G U176A  0.0257
79. A120U A145C C150U C169U U176C  0.0258
80. A145C C150A C169G U176A  0.0271
81. A145G C150G C169A  0.0272
82. A145G C150U C169A U176A  0.0281
83. A120U A145U C150A C169G  0.0282
84. A145C C150A C169U  0.0286
85. A120U A145G C150U C169G U176A  0.0289
86. A120U C150A C169G  0.0291
87. A145G C150A C169A  0.0304
88. A120U A145U C150G C169G  0.0307
89. A120U A145C C150U C169U U176A  0.0309
90. A120U A145G C150A C169U U176C  0.032
91. A120U A145U C169G U176A  0.0356
92. A120U A145C C169G U176A  0.0356
93. A120U A145U C150A C169U  0.0358
94. A120U C150A C169U  0.038
95. A145C C150U C169G U176A  0.0403
96. A120U A145U C150G C169U  0.0429
97. A145C C150U C169G U176C  0.0444
98. A145G C150G C169G  0.0446
99. A145G C150G C169U U176C  0.0454
100. A145G C150A C169U U176A  0.0484
101. A120U A145C C169G U176C  0.0504
102. A145C C150U C169U U176A  0.0513
103. A145G C150U C169A U176C  0.0527
104. A120U C150U C169G U176C  0.0569
105. A145G C150A C169U U176C  0.0583
106. A145G C150A C169G  0.0594
107. A120U C150U C169U U176A  0.0605
108. A120U A145G C150A U176G  0.063
109. A120U A145G C150U C169G U176C  0.063
110. A145G C150G C169U  0.0734
111. A120U C150G U176A  0.0739
112. A145C C150U C169U U176C  0.0741
113. A120U A145U C169G U176C  0.0807
114. A120U C150U C169U U176C  0.083
115. A120U C150A U176G  0.0831
116. A120U A145C C169U U176A  0.0854
117. A120U C169U U176A  0.0922
118. A145G C150A C169U  0.0924
119. A120U A145C C169U U176C  0.1
120. A145C C169U U176A  0.106
121. A145C C150G U176G  0.114
122. A120U C150G U176C  0.115
123. A145G C150U C169A  0.136
124. A120U C169U U176C  0.139
125. A120U C150U C169G  0.15
126. A145C C169U U176C  0.156
127. A145C C169A  0.167
128. A120U C150A U176C  0.172
129. A120U C150A U176A  0.178
130. A145G C150A U176G  0.184
131. A120U C150U C169U  0.203
132. A120U A145G C150A U176C  0.218
133. A120U A145G C150A U176A  0.222
134. A120U C150U U176G  0.222
135. A120U A145C C169G  0.231
136. A145G C150U C169G  0.239
137. A120U A145G C150G  0.25
138. A120U A145G C169G  0.255
139. A120U C169U  0.257
140. A145C C169G  0.26
141. A120U C169G  0.262
142. A120U A145C C169U  0.263
143. A120U A145G C169U  0.286
144. A145C C150U U176G  0.308
145. A145C C150A  0.321
146. A145C C169U  0.351
147. A120U A145C U176G  0.36
148. A120U A145G C150A  0.361
149. A145C C150G U176A  0.364
150. A145C C150G U176C  0.388
151. A145C U176G  0.411
152. A120U A145C U176C  0.452
153. A145G C150A U176C  0.464
154. A145G C150A U176A  0.472
155. A145G C150G  0.48
156. A145C C150G  0.525
157. A120U C150U U176C  0.556
158. A145G C150A  0.582
159. A145C C150U U176C  0.596
160. A145C C150U U176A  0.613
161. A120U C150U U176A  0.62
162. A120U A145C U176A  0.634
163. A145C C150U  0.695
164. A145C U176A  0.767
165. A120U A145G C150U  0.841
166. A145C U176C  0.843
167. A145G C150U  0.93
